Where a chain is given by its changes, count along the chain named.
T1: D1 domain of IGSF8 (recombinant protein) (human, UniProt Q969P0 28-149, limits assumed)
T1 construct: domain: D1 (Ig V-set domain); also called Ig V-set domain of IGSF8
T1 sequence (looked up): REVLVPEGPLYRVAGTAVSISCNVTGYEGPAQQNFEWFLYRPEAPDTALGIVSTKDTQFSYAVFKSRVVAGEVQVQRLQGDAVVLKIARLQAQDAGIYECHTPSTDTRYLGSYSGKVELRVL

T2: full-length IGSF8 (recombinant antigen of the SPR screen; IGSF8 target antigen of the phage panning) (human, UniProt Q969P0 28-579, limits assumed)
T2 sequence (looked up): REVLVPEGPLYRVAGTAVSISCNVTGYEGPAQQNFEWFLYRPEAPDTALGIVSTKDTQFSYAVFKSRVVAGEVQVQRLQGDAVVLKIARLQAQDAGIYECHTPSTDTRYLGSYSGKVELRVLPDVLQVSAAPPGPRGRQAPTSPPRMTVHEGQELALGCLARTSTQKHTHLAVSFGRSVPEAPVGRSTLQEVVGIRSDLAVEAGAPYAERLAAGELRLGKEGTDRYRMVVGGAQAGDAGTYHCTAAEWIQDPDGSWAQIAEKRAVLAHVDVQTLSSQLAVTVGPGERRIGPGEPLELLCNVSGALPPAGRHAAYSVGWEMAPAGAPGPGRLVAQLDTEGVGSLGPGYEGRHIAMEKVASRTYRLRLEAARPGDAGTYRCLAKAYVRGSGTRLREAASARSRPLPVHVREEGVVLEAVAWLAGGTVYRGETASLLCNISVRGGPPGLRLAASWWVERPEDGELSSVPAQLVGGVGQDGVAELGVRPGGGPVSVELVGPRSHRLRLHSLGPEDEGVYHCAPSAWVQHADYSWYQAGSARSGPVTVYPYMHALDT

T3: human IGSF8 expressed on the cell surface (human, UniProt Q969P0 28-613)
T3 construct: whole, on cells; also called human IGSF8 on CT26 cells; IGSF8 on MC38 cells
T3 sequence (looked up): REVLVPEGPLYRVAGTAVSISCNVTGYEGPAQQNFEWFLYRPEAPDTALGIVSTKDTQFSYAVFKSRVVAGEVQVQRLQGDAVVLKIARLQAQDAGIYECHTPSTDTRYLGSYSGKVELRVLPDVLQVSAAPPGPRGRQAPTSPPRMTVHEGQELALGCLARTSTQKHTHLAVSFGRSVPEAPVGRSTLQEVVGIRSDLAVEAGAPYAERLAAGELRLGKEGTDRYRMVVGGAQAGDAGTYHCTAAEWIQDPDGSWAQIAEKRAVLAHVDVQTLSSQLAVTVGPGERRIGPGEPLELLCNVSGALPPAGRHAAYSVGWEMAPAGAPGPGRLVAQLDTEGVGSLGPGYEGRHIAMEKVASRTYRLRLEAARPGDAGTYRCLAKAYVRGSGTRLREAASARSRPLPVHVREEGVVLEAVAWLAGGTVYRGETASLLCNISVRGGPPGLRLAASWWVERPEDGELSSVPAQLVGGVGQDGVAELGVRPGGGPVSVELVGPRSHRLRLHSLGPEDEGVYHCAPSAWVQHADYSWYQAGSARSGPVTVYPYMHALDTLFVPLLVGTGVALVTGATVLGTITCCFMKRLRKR

T4: IGSF8 protein without D1 domain (human, UniProt Q969P0 150-579, limits assumed)
T4 construct: domain: D2-4; also called D24; D2-4
T4 sequence (looked up): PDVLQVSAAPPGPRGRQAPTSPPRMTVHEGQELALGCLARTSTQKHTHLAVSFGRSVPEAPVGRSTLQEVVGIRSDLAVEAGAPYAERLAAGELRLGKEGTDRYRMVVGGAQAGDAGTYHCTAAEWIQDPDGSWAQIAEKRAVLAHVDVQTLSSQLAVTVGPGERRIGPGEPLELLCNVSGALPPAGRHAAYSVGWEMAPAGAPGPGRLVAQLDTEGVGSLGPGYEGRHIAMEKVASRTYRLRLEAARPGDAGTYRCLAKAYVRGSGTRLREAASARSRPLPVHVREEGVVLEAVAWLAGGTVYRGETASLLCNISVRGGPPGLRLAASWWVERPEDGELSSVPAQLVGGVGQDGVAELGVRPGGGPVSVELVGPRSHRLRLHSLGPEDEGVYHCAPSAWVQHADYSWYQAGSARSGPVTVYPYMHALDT

T5: recombinant human IGSF8 extracellular domain tagged by a human Fc region (IGSF8-hFc) (human, UniProt Q969P0 28-579, biotin label in Examples 17, 18 and 28 (site not given))
T5 construct: also called IGSF8-Fc fusion protein; IGSF8-hFc-biotin; not shown: human Fc region
T5 sequence: T2 sequence (looked up)

B1: Antibody C30 (B34) (antibody, V domains shown)
VH: EVQLLESGGGLVQPGGSLRLSCAASGFTFSSYAMSWVRQAPGKGLEWVSGITGSGGSTYYADSVKGRFTISRDNSKNTLYLQMNSLRAEDTAVYYCARGRQVDKWGQGTLVTVSS
VL: DIMLTQSPSSLSASVGDRVTITCRASQSIHNYLNWIQQTPGKAPKLLVFAASTLQRGVPPRYSGRGSGTEFTLTISSLQPEDFATYYCQQSYTTPLTFGGGTKVEIRR
notes: Expressed in CHO cells; also called mAb-B34 (C30)
B2: Antibody C38 (2B4) (antibody, V domains shown)
VH: EVQLVESGGGLEQPGGSLRLSCAGSGFTFRDYAMTWVRQAPGKGLEWVSSISGSGGNTYYADSVKGRFTISRDNSKNTLYLQMNSLRAEDTAIYYCARGEYSSGWPSWFDPWGQGTLVTVSS
VL: EIVLTQSPSSLSASVGDRVTISCRASRTVGTFLNWYQQRPGKPPQALILGVSILEGGVSSRFSGAGSGTEFSLTISSLQPEDIGTYYCQQSHDVPRTFGQGTKVDLRR
notes: also called mAb-2B4 (C38)
B3: Antibody C33 (1C2) (antibody, V domains shown)
VH: QVQLVESGGGVVQPGRSLRLSCAASGFTFSTYGMHWVRQAPGKGLEWVAVIWDDGSYKYYGDSVKGRFTISRDNSKNTLYLQMNSLRAEDTAVYYCARDGSGWGYAFDIWGQGTMVTVSS
VL: DIQLTQSPSSLSASVGDRVTITCQASQDISEYLNWYQHKPGKAPNPLVFDAANLETGVPPRFSATGSGTDFSLTITSLQPEDFATYYCQQYDSFPYTFGQGTRLDIK
notes: also called mAb-1C2 (C33)
B4: Antibody C37 (3F12) (antibody, V domains shown)
VH: EVQLVQSGGGLVKPGGSLRLSCAASGFTFSSYSMNWVRQAPGKGLEWVSSISSSSSYIYYADSVKGRFTISRDNAKNSLYLQMNSLRAEDTAVYYCAGRQYDFWSGWDWFDPWGQGTLVTVSS
VL: DIQLTQSPSSLSASVGDRVTITCRASQSISTYLNWYQQKPGKAPKLLIHDASILQSGVPSRFSGSGSGTDFTLTISSLQAEDFATYYCQQSYSTLPYTFGQGTKVEIK
notes: also called mAb-3F12(C37)
B5: KIR2DL2 expressed on CT26 cells (receptor, human, UniProt P43627 22-348, looked up)
chain: HEGVHRKPSLLAHPGRLVKSEETVILQCWSDVRFEHFLLHREGKFKDTLHLIGEHHDGVSKANFSIGPMMQDLAGTYRCYGSVTHSPYQLSAPSDPLDIVITGLYEKPSLSAQPGPTVLAGESVTLSCSSRSSYDMYHLSREGEAHECRFSAGPKVNGTFQADFPLGPATHGGTYRCFGSFRDSPYEWSNSSDPLLVSVIGNPSNSWPSPTEPSSKTGNPRHLHILIGTSVVIILFILLFFLLHRWCSNKKNAAVMDQESAGNRTANSEDSDEQDPQEVTYTQLNHCVFTQRKITRPSQRPKTPPTDIIVYAELPNAESRSKVVSCP
notes: whole, on cells
B6: KIR2DL5A expressed on CT26 cells (receptor, human, UniProt Q8N109 22-375, looked up)
chain: HEGGQDKPLLSAWPSAVVPRGGHVTLLCRSRLGFTIFSLYKEDGVPVPELYNKIFWKSILMGPVTPAHAGTYRCRGSHPRSPIEWSAPSNPLVIVVTGLFGKPSLSAQPGPTVRTGENVTLSCSSRSSFDMYHLSREGRAHEPRLPAVPSVNGTFQADFPLGPATHGGTYTCFGSLHDSPYEWSDPSDPLLVSVTGNSSSSSSSPTEPSSKTGIRRHLHILIGTSVAIILFIILFFFLLHCCCSNKKNAAVMDQEPAGDRTVNREDSDDQDPQEVTYAQLDHCVFTQTKITSPSQRPKTPPTDTTMYMELPNAKPRSLSPAHKHHSQALRGSSRETTALSQNRVASSHVPAAGI
notes: whole, on cells
B7: KIR2DL5B expressed on CT26 cells (receptor, human, UniProt Q8NHK3 22-375, looked up)
chain: B6 chain with N152D, G174S
notes: whole, on cells
B8: KIR3DL1 D1 construct on CT26 cells (receptor, human, UniProt P43629 22-118, looked up)
chain: HMGGQDKPFLSAWPSAVVPRGGHVTLRCHYRHRFNNFMLYKEDRIHIPIFHGRIFQESFNMSPVTTAHAGNYTCRGSHPHSPTGWSAPSNPVVIMVT
notes: domain: D1; also called D1/D3 construct
B9: KIR3DL1 D3 construct on CT26 cells (receptor, human, UniProt P43629 222-340, looked up)
chain: EKPSLSAQPGPKVQAGESVTLSCSSRSSYDMYHLSREGGAHERRLPAVRKVNRTFQADFPLGPATHGGTYRCFGSFRHSPYEWSDPSDPLLVSVTGNPSSSWPSPTEPSSKSGNPRHLH
notes: domain: D3; also called D1/D3 construct
B10: KIR3DL2 D1 construct on CT26 cells (receptor, human, UniProt P43630 22-118, looked up)
chain: LMGGQDKPFLSARPSTVVPRGGHVALQCHYRRGFNNFMLYKEDRSHVPIFHGRIFQESFIMGPVTPAHAGTYRCRGSRPHSLTGWSAPSNPLVIMVT
notes: as for B8
B11: KIR3DL2 D3 construct on CT26 cells (receptor, human, UniProt P43630 222-340, looked up)
chain: EKPSLSAQPGPTVQAGENVTLSCSSWSSYDIYHLSREGEAHERRLRAVPKVNRTFQADFPLGPATHGGTYRCFGSFRALPCVWSNSSDPLLVSVTGNPSSSWPSPTEPSSKSGICRHLH
notes: as for B9

The binders below were run against T1, D1 domain of IGSF8 (recombinant protein) (assay: SPR, Biacore T100).

| Binder | Kd [nM] |
| --- | --- |
| B1 | < 50 |
| B2 | < 50 |
| B3 | < 50 |
| B4 | < 50 |

What follows are binders tested against T2, full-length IGSF8 (recombinant antigen …) (assay: SPR, Biacore T100).

| Binder | Kd [nM] |
| --- | --- |
| B1 | 13.8 |
| B2 | 3.83 |
| B3 | 33.2 |
| B4 | 22.5 |

What follows are binders tested against T3, human IGSF8 expressed on the cell … (assay: FACS on CT26 cells with forced surface expression of human IGSF8).
Description: For antibody binding assays based on cell-expressed antigens, 100,000 cells overexpressing the antigen (either the full-length IGSF8 or the D1 domain thereof) were washed with PBS buffer containing 2% FBS, and then incubated with 100 μL of antibodies or IgG of different concentrations for 30 minutes on ice. Cells were then washed twice with wash buffer, and incubated with 100 μL of 1:100 anti-human Fc-PE antibody for 15 minutes on ice. Cells were washed twice with wash buffer and analyzed on a FACS analyzer (CytoFlex, Beckman).

| Binder | EC50 [nM] |
| --- | --- |
| B1 | 7.88 |
| B2 | 4.64 |
| B3 | 6.2 |
| B4 | 5.93 |

The binders below were run against T4, IGSF8 protein without D1 domain (assay: FACS, single antibody dose, IGSF8-D24 (D2-D4 with TM, no D1) expressed on CT26 cells).

| Binder | binding result |
| --- | --- |
| B2 | no binding (tested: not shown on the sheet) |
| B3 | no binding (tested: not shown on the sheet) |

The binders below were run against T5, recombinant human IGSF8 extracellular … (assay: FACS, biotin-labelled IGSF8-hFc on CT26 cells expressing the KIR, MFI normalized to Thy1.1).
Description: For this experiment, different human KIR receptors (KIR2DL1, KIR2DL2, KIR2DL3, KIR2DL4, KIR2DL5A, KIR2DL5B, KIR3DL1, KIR3DL2, KIR3DL3) were first cloned into a proprietary lentiviral vector containing a thy1.1 tag (FIG. 17A). Then mouse CT26 cells, were transducted by these lentiviral constructs, and IGSF8 binding was tested with biotin-labelled recombinant IGSF8 hFc fusion protein. The mean fluorescence intensity (MFI) of IGSF8 binding to different CT26 cells were normalized by the expression of different KIRs on CT26 cells using an anti-thy1.1 mAb (Biolegend) via flow cytometry.
KLRC1 also contains a ITIM motif in its intracellular domain, and was known to be a inhibitory receptor of NK or CD8⁺ T cells as part of a heterodimer with KLRD1 on the cell surface. […] Specifically, 100,000 CT26 cells overexpressing the antigens (KIRs or KLRs) were washed with PBS buffer containing 2% FBS, and incubated with 100 μL IGSF8 recombinant proteins or antibodies (5 μg/mL) for 30 minutes on ice. Cells were then washed twice with wash buffer, and incubated with 100 μL of 1:100 anti-human Fc-PE antibody for 15 minutes on ice. Cells were washed twice with wash buffer and analyzed on a FACS analyzer (CytoFlex, Beckman). In these experiments, the mean fluorescence intensity (MFI) of IGSF8 binding to different CT26 cells were normalized by the expression of different KLRs on CT26 cells using an anti-thy1.1 mAb via flow cytometry.

| Binder | binding result |
| --- | --- |
| B5 | no binding |
| B6 | no binding |
| B7 | no binding |

These binders were tested against T5, recombinant human IGSF8 extracellular … (assay: FACS, biotin-labelled IGSF8 on CT26 cells expressing KIR3DL1/2 constructs, MFI normalized to Thy1.1).

| Binder | binding result |
| --- | --- |
| B8 | no binding (tested: not shown on the sheet) |
| B9 | no binding (tested: not shown on the sheet) |
| B10 | no binding (tested: not shown on the sheet) |
| B11 | no binding (tested: not shown on the sheet) |

Source: patent US20230303695A1 (SHANGHAI XBH BIOTECHNOLOGY, published 2023)
